Results taken from article PMC7990499 (eLife, 2021).

Biological target: T1, fluorescently tagged eIF2Bβδγε tetramer (eIF2Bβδγε-F) (human, UniProt P49770 2-351; Q9UI10 1-523; Q9NR50 1-452; Q13144 1-721)
T1 construct: eIF2Bβ (eIF2B subunit beta), human; eIF2Bδ (eIF2B subunit delta), human; eIF2Bγ (eIF2B subunit gamma), human; eIF2Bε (eIF2B subunit epsilon), human; also called eIF2Bβγδε-F; tagged tetramers; source: E. coli, co-expression of pMS029 and pJT074, purified as previously described (Tsai et al., 2018); not shown: mNeonGreen with (GS)5 linker, C-terminal, kept; mScarlet-i with (GS)5 linker, C-terminal, …
Experiment: FRET or BRET; in vitro equilibrium FRET (E592/E516), 50 nM eIF2Bβδγε-F with a titration of eIF2Bα2, 1 hr, room temperature, 20 mM HEPES-KOH pH 7.5, 100 mM KCl, 5 mM MgCl2, 1 mM TCEP, 0.5% DMSO
Conditions: both partners purified

T1 sequence (P49770 2-351, stated change not applied, chain 1 of 4): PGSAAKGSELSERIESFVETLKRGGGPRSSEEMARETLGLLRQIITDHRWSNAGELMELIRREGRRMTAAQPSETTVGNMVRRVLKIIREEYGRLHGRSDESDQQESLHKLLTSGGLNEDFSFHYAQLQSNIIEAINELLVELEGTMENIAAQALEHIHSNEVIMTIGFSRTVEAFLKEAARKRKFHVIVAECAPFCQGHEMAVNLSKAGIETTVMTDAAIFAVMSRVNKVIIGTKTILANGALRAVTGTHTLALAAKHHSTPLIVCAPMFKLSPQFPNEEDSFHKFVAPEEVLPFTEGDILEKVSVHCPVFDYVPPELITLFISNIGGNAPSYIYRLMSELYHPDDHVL
T1 sequence (Q9UI10 whole entry, stated change not applied, chain 2 of 4): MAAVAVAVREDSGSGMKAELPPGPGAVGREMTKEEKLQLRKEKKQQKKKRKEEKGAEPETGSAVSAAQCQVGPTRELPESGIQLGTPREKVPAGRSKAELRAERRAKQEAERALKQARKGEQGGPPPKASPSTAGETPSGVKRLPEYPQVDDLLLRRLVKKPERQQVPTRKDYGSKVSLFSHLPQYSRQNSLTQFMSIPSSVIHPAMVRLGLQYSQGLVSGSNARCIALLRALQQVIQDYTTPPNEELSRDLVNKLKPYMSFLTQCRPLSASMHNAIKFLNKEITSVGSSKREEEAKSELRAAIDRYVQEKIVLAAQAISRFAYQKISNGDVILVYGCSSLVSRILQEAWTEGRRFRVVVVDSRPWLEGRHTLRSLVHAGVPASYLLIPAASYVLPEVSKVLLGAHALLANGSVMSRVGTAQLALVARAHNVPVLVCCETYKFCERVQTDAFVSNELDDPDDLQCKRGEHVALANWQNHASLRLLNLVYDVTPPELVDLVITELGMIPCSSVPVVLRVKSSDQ
T1 sequence (Q9NR50 whole entry, stated change not applied, chain 3 of 4): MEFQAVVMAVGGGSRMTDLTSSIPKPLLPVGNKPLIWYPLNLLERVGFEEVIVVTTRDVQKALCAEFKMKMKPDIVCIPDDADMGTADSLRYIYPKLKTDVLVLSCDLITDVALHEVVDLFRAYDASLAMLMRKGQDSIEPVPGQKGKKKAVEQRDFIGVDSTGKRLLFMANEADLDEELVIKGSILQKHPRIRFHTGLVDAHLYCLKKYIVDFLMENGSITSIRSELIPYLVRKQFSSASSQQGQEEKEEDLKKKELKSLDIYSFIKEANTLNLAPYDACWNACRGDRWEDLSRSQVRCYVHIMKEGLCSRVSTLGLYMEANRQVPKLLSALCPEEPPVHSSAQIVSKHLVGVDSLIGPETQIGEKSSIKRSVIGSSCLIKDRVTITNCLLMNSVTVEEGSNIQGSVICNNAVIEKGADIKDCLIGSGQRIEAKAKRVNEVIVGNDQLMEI
T1 sequence (Q13144 whole entry, stated change not applied, chain 4 of 4): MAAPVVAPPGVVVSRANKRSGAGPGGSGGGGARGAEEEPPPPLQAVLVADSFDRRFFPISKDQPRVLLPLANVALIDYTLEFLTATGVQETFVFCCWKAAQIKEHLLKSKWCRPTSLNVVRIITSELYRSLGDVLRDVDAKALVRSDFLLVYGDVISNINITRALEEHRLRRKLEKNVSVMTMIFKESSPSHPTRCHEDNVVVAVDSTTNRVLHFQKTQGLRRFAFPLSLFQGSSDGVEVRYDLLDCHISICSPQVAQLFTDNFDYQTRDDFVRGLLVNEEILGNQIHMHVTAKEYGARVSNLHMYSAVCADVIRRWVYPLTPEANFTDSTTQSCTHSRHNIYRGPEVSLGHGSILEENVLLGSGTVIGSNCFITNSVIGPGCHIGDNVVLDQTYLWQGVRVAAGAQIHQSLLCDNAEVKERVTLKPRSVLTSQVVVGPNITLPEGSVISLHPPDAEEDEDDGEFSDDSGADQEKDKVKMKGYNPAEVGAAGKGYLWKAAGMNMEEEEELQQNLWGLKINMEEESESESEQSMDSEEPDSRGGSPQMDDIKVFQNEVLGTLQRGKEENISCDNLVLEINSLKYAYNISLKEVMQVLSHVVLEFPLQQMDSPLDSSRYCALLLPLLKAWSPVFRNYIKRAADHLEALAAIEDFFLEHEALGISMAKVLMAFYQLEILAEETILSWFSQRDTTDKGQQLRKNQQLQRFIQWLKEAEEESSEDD

B1: eIF2Bα homodimer (eIF2Bα2) (natural protein, human)
chain: MDDKELIEYFKSQMKEDPDMASAVAAIRTLLEFLKRDKGETIQGLRANLTSAIETLCGVDSSVAVSSGGELFLRFISLASLEYSDYSKCKKIMIERGELFLRRISLSRNKIADLCHTFIKDGATILTHAYSRVVLRVLEAAVAAKKRFSVYVTESQPDLSGKKMAKALCHLNVPVTVVLDAAVGYIMEKADLVIVGAEGVVENGGIINKIGTNQMAVCAKAQNKPFYVVAESFKFVRLFPLNQQDVPDKFKYKADTLKVAQTGQDLKEEHPWVDYTAPSLITLLFTDLGVLTPSAVSDELIKLYL
notes: eIF2Bα (eIF2B subunit alpha), human; also called eIFBα2; eIF2Bα homodimers; source: E. coli, expressed separately (pJT075 or pMS027), purified as previously described (Tsai et al., 2018)
**Q.** Which EC50 does the source give for B1 here?
**A.** The EC50 was 20 nM.
